# Laboratory results: patent publication US7662583B2, “Bioreactor containing cells expressing glycosyltransferase nucleic acids isolatable from Arabidopsis” (The University of York, priority 2003, dated 2010)
# How the values were obtained:
# [1] = UGT enzyme reaction with quercetin (recombinant UGTs, HPLC); type: biochemical, Arabidopsis; settings: 0.5 mM quercetin, 5 mM UDP-glucose, 30° C.
# Method in brief: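 Recombinant Arabidopsis UGTs (2 μg) incubated with 0.5 mM quercetin and 5 mM UDP-glucose in 100 mM Tris-HCl pH 7.0 at 30 °C for 1 h. Quercetin glucosides separated from aglycone by reverse-phase C18 HPLC (acetonitrile gradient, 0.1% TFA), detected at 370 nm.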
# [2] = UGT enzyme reaction with cytokinins; type: biochemical; settings: substrate dihydrozeatin
# Protocol: The assay mix (200 μl) contained 2 μg of recombinant protein, 100 mM Tris-HCl, pH 8.0, 5 mM UDP-glucose 0.5 mM ATP, 50 mM MgCl2, and 0.5 mM of cytokinin. The reaction was carried out at 30° C. for 3 h, and was quick-frozen and stored at −20° C. prior to the reverse-phase HPLC analysis
# Reverse-phase HPLC (SpectraSYSTEM HPLC systems and UV6000LP Photodiode Array Detector, ThermoQuest) analysis was carried using a Columbus 5μ C18 column (250×4.60 mm, PHENOMENEX). Quercetin glucosides were separated from the aglycone by a linear gradient of 10-75% acetonitrile in H2O (all solution contained 0.1% trifluoroacetic acid) at 1 ml/mm over 20 mm and monitored at 370 nm. Cytokinin glucosides were separated from their aglycone by a liner gradient of 10-100% methanol in H2O (for N6-isopentenyladenine (iP), N6-benzyladenine and kinetin) or 10-60% methanol in H2O (for trans-zeatin and dihydrozeatin) at 1 ml/min over 20 mm. All solution contained 0.25% acetic acid and 0.04% triethylamine, trifluoroacetic acid. The separation was monitored at 206 nm and 252 nm. The identity of the products was confirmed by comparison with authentic gluco sides.
# • 1. 7-N-glucoside (76C1, 76C2) • 2. 9-N-glucoside (76C1, 76C2) • 3. O-glucoside (only apply to trans-Zeatin and dihydrozeatin) (85A1 for trans-Zeatin; 85A1 and 73C5 for dihydrozeatin) Large Scale Fermentation
molecule,measurement,setting,value
"UGT73C5: Arabidopsis recombinant glycosyltransferase, FIG. 11 (protein, listed as Arabidopsis thaliana) MVSETTKSSPLHFVLFPFMAQGHMIPMVDIARLLAQRGVIITIVTTPHNAARFKNVLNRAIESGLPINLVQVKFPYLEAGLQEGQENIDSLDTMERMIPFFKAVNFLEEPVQKLIEEMNPRPSCLISDFCLPYTSKIAKKFNIPKILFHGMGCFCLLCMHVLRKNREILDNLKSDKELFTVPDFPDRVEFTRTQVPVETYVPAGDWKDIFDGMVEANETSYGVIVNSFQELEPAYAKDYKEVRSGKAWTIGPVSLCNKVGADKAERGNKSDIDQDECLKWLDSKKHGSVLYVCLGSICNLPLSQLKELGLGLEESQRPFIWVIRGWEKYKELVEWFSESGFEDRIQDRGLLIKGWSPQMLILSHPSVGGFLTHCGWNSTLEGITAGLPLLTWPLFADQFCNEKLVVEVLKAGVRSGVEQPMKWGEEEKIGVLVDKEGVKKAVEELMGESDDAKERRRRAKELGDSAHKAVEEGGSSHSNISFLLQDIMELAEPNN",Specific activity (nkat/mg protein) 3-O-glc,[1]; quercetin glucosylated at 3-OH,— (Activity lower than 0.02 nkat/mg protein has been considered as trace activity and is not shown in the Table.)
same,Specific activity (nkat/mg protein) 3′-O-glc,[1]; quercetin glucosylated at 3′-OH,— (Activity lower than 0.02 nkat/mg protein has been considered as trace activity and is not shown in the Table.)
same,Specific activity (nkat/mg protein) 4′-O-glc,[1]; quercetin glucosylated at 4′-OH,0.25 nkat/mg protein
same,Specific activity (nkat/mg protein) 7-O-glc,[1]; quercetin glucosylated at 7-OH,0.11 nkat/mg protein
same,Cytokinin products formed by the UGTs: O-glucoside,[2],O-glucoside
